The text below walks through data of US20230203197A1 (UNIVERSITE DE TOUR, published 2023).

The target in test [1] is T1, neutrophil proteinase 3 (PR3), purified native human PR3 (human, UniProt P24158 28-248).
T1 construct: Also used in denatured form in western blot and as the antigen of the EuroImmun anti-PR3 kit; also called native PR3
T1 sequence: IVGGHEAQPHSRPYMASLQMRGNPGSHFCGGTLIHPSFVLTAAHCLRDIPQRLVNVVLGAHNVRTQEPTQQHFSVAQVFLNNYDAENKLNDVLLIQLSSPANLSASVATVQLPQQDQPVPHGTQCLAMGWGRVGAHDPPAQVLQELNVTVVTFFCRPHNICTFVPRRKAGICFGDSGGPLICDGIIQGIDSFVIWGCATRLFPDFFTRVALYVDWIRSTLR
As to the kind of experiment: BIACORE (SPR).

The target of test [2] is T2, Elastase (UniProt P08246 30-247, limits assumed).
T2 sequence (looked up): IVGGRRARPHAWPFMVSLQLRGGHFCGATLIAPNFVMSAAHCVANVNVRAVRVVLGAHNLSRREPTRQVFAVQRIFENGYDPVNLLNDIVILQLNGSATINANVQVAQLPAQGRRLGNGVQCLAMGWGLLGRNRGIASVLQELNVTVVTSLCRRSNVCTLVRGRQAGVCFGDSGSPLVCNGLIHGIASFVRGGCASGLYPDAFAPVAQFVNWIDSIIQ
The test is described as follows: western blot, 4C3 as the primary antibody. The source says:
(§1) To confirm anti-PR3 specificity, 4C3 was used as a primary antibody in western blot (FIGS. 8A and 8B) on protein lysates from neutrophils, HeLa cells (ATCC® CCL-2™) and human PR3.
For orientation: A western blot detects proteins with antibodies after separation by electrophoresis.

Test [3] addresses T3, Cathepsin G (Cath G) (UniProt P08311 21-244).
T3 sequence (looked up): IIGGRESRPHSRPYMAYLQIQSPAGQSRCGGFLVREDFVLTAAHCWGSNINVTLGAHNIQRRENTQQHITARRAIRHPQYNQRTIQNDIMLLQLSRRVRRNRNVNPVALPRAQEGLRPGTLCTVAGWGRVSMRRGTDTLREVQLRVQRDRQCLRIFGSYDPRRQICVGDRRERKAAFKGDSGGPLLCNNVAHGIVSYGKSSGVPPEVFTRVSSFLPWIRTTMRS
As to the kind of experiment: western blot, 4C3 as the primary antibody.
Description: as §1

Test [4] deals with T4, peptide 4C3_3.2 of PR3, biotinylated (human, biotinylated (position not given)).
T4 construct: also called peptide 3.2
The test is described as follows: HTRF: anti-Fab antibody coupled to d2 on 4C3, terbium-streptavidin on the biotinylated peptide; ratio, baseline-corrected. The protocol:
The identification of the epitope recognised by the 4C3 antibody was carried out by MabSilico. The first step enabled the PR3 epitope to be modelled using the MabTope method, which consists of the computer prediction of an ordered list of PR3 peptides likely to belong to the epitope from the sequence of the variable part (VH and VL) of 4C3 (FIGS. 4B and 4C). The second step allowed the experimental measurement of the specific binding of a number of these peptides to the antibody. This measurement was made by HTRF (Homogeneous Time Resolved Fluorescence) between an anti-Fab d2-coupled antibody (CisBio™) which binds to the antibody of interest, and a terbium-coupled streptavidin (CisBio™) which binds to the biotinylated peptide (FIG. 4D).
On the technique in general: TR-FRET usually uses a lanthanide donor and a delayed reading to cut background.

The target in test [5] is T5, BSA (bovine, UniProt P02769).
T5 construct: in the ELISA well; also called Bovine Serum Albumin
The test is described as follows: ELISA, compared with coated PR3.

Test [6] deals with T6, OVA.
T6 construct: One of the antigens of group m15; also called ovalbumin
T6 chain: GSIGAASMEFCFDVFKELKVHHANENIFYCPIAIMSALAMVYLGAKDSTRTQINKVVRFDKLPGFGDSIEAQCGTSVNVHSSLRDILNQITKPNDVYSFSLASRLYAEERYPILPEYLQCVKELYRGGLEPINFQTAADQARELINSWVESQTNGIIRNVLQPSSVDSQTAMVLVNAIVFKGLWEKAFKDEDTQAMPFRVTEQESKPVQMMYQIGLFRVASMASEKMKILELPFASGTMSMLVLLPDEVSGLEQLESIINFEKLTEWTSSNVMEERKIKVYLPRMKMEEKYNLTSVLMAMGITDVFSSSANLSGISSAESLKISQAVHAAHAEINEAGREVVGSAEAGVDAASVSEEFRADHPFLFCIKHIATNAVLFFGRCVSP
As to the kind of experiment: specificity ELISA on different coated antigens (n=5).

Test [7] addresses T1, neutrophil proteinase 3 (PR3), purified …. The test is described as follows: BIACORE (SPR). This is another data set of the same source.
Test [8] deals with T6, OVA. The test is described as follows: ELISA, compared with coated PR3.

Like-named read-outs stand apart in the source and are kept apart here.

T5 sequence (P02769 25-607 limits assumed): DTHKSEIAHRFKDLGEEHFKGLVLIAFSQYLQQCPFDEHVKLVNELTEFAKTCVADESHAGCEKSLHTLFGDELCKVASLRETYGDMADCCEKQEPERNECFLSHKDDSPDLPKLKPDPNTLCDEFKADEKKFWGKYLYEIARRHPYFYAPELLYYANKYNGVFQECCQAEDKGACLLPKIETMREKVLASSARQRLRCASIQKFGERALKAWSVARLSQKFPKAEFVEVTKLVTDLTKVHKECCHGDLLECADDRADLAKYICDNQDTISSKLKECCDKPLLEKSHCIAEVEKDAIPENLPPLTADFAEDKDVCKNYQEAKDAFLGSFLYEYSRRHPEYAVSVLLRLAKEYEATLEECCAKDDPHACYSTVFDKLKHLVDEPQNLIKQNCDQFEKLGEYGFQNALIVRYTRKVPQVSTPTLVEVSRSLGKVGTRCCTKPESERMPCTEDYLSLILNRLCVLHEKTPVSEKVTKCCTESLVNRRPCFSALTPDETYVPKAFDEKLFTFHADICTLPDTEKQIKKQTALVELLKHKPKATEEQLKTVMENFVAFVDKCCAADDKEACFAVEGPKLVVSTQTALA

B1: human monoclonal anti-proteinase 3 (PR3) 4C3 antibody, G1m3-1 allotype (antibody, human IgG1, kappa)
heavy: not shown
light: DIQMTQSPPTLSASVGDRVTITCRASQSISDWLAWYQQKPGKPPQLLIYKASSLESGVPSRFSGTGSGAEFTLTISSLQPDDSATYYCQQYNSYSNTFGQGTKLEIKRTVAAPSVFIFPPSDEQLKSGTASVVCLLNNFYPREAKVQWKVDNALQSGNSQESVTEQDSKDSTYSLSSTLTLSKADYEKHKVYACEVTHQGLSSPVTKSFNRGEC
notes: also called MAb 4C3; AcMo 4C3
Turning to B1, in test [1], the equilibrium dissociation constant (Kd) (as a rule, the constant that tells how readily two partners part at equilibrium) came out at 0.741 nM. For the same molecule, the off-rate (koff) (commonly a measure of how fast the partners let go of each other) in test [1] was 0.00936 s⁻¹. For the same molecule, the kon (as a rule, the second-order rate constant of association) in test [1] amounted to 1.26e+07 M⁻¹ s⁻¹. For the same molecule, the binding result is on record as “no binding (tested: 5 µg per lane)” in test [2]; “no binding (tested: 5 µg per lane)” in test [3]; “binds” in test [4]; “no binding” in test [5]; “no binding” in test [6].

B2: recombinant 4C3 antibody (r4C3), G1m17-1 allotype (antibody, human IgG1, kappa)
heavy: not shown
light: DIQMTQSPPTLSASVGDRVTITCRASQSISDWLAWYQQKPGKPPQLLIYKASSLESGVPSRFSGTGSGAEFTLTISSLQPDDSATYYCQQYNSYSNTFGQGTKLEIKRTVAAPSVFIFPPSDEQLKSGTASVVCLLNNFYPREAKVQWKVDNALQSGNSQESVTEQDSKDSTYSLSSTLTLSKADYEKHKVYACEVTHQGLSSPVTKSFNRGEC
notes: Produced in HEK-293 cells; differs from 4C3 only by R>K at position 224 of the heavy chain constant region
Take B2: in test [7], the Kd worked out at 0.684 nM, the off-rate constant (koff) stood at 0.00936 s⁻¹ and the kon worked out at 1.37e+07 M⁻¹ s⁻¹. In addition, the binding result in test [5] is given as “no binding”. Moreover, the binding result in test [8] is “no binding (tested: 1 µg/ml (coating of Ova))”.
